Data as given in the supplement of paper PMC9233669.
Variants at the floor of the assay were thinned out.

What was measured:
[1] = system: biotinyl-Trp-oxazolone; assay: self-aminoacylation, catalytic enhancement (BWO) (fold over background); higher = more active; k-Seq, kA / k0A0; sequences stand for … in GGGAAUGGAUCCACAUCUACGAAUUC…UUCACUGCAGACUUGACGAAGCUG
Outline: (§1)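 Mutagenized RNA pools (0.43 μM; 21-nt variable region) were treated with 2–1250 μM of each biotinyl-aminoacyl-oxazolone. Conditions were 50 μL HEPES/NaCl/KCl/MgCl2/CaCl2 buffer, 5% acetonitrile, pH 6.9–7.0, room temperature, 90 minutes. Catalytic enhancement, the median kA relative to the uncatalyzed rate, was derived from streptavidin capture, qPCR and Illumina sequencing.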

[2] = system: biotinyl-Met-oxazolone; assay: self-aminoacylation, catalytic enhancement (BMO) (fold over background); higher = more active; k-Seq, kA / k0A0; sequences stand for … in GGGAAUGGAUCCACAUCUACGAAUUC…UUCACUGCAGACUUGACGAAGCUG
Outline: as §1

[3] = system: biotinyl-Ile-oxazolone; assay: self-aminoacylation, catalytic enhancement (BIO) (fold over background); higher = more active; k-Seq, kA / k0A0; sequences stand for … in GGGAAUGGAUCCACAUCUACGAAUUC…UUCACUGCAGACUUGACGAAGCUG
Outline: as §1

[4] = system: biotinyl-Phe-oxazolone; assay: self-aminoacylation, catalytic enhancement (BFO) (fold over background); higher = more active; k-Seq, kA / k0A0; sequences stand for … in GGGAAUGGAUCCACAUCUACGAAUUC…UUCACUGCAGACUUGACGAAGCUG
Outline: as §1

[5] = system: biotinyl-Val-oxazolone; assay: self-aminoacylation, catalytic enhancement (BVO) (fold over background); higher = more active; k-Seq, kA / k0A0; sequences stand for … in GGGAAUGGAUCCACAUCUACGAAUUC…UUCACUGCAGACUUGACGAAGCUG
Outline: as §1

[6] = system: biotinyl-Leu-oxazolone; assay: self-aminoacylation, catalytic enhancement (BLO) (fold over background); higher = more active; k-Seq, kA / k0A0; sequences stand for … in GGGAAUGGAUCCACAUCUACGAAUUC…UUCACUGCAGACUUGACGAAGCUG
Outline: as §1

Row | Sequence | self-aminoacylation [1] | self-aminoacylation [2] | self-aminoacylation [3] | self-aminoacylation [4] | self-aminoacylation [5] | self-aminoacylation [6]
1 | AAGUUUGCUAAUAGUAGCGAG [Fam3.1 aminoacylation ribozyme variant] | 1.14 | 0.995 | 1.21 | 1.65 | 1 | 0.962
2 | CUACUUCAAACAAUCGUUCUU [Fam1A.1 aminoacylation ribozyme variant] | 0.574 | 0.716 | 0.712 | 0.947 | 0.729 | 0.64
3 | AUGCACCUAGGGCAUCGGGUG [Fam2.2 aminoacylation ribozyme variant] | 4.75 | 3.04 | 2.89 | 30.6 | 3.46 | 3.16
4 | UUUACCCUGGUCAUCUAGUGA [Fam2.1 aminoacylation ribozyme variant] | 10.9 | 8.71 | 4.72 | 46.3 | 4.43 | 8.63
5 | GUUACCCUGGUCAUCGAGCGA [Fam2.1 aminoacylation ribozyme variant] | 4.27 | 4.51 | 2.84 | 5.54 | 3.46 | 4.14
6 | AUUACCCUGGUCAUAGAGUCA [Fam2.1 aminoacylation ribozyme variant] | 0.529 | 0.82 | 0.884 | 0.531 | 0.974 | 0.962
7 | AUUCACCUAGGGUAUCGGGUG [Fam2.2 aminoacylation ribozyme variant] | 6.31 | 6.75 | 3.84 | 50.9 | 3.99 | 8.63
8 | UUACUUCUAACAAUCGGUCUG [Fam1A.1 aminoacylation ribozyme variant] | 0.836 | 1.09 | 1.08 | 0.907 | 1.08 | 1.11
9 | AAGUAUGCUAAUAGUCGCAAU [Fam3.1 aminoacylation ribozyme variant] | 1.75 | 2.13 | 1.9 | 1.96 | 1.52 | 1.64
10 | AUUCAACUCGGUCAUCGGGUG [Fam2.2 aminoacylation ribozyme variant] | 7.4 | 6.48 | 4.15 | 67.4 | 3.84 | 9.77
11 | AUUACCAUGGGCAUCGAGUGA [Fam2.1 aminoacylation ribozyme variant] | 7.88 | 6.01 | 3 | 30.7 | 3.13 | 6.48
12 | CUAAUUCAAACAAUCGGUUUG [Fam1A.1 aminoacylation ribozyme variant] | 2.78 | 0.701 | 0.802 | 3.96 | 0.724 | 0.696
13 | AUUCACCUCGAUCAUCGGGUG [Fam2.2 aminoacylation ribozyme variant] | 3.99 | 4.77 | 3.11 | 39.4 | 3.18 | 5.94
14 | AUUCACCUCGGUCAUCGCGUG [Fam2.2 aminoacylation ribozyme variant] | 12.9 | 11.4 | 6.77 | 109 | 7.67 | 16
15 | AUUACCCUGGACACCGAGUGA [Fam2.1 aminoacylation ribozyme variant] | 3.99 | 4.14 | 2.15 | 4.62 | 1.83 | 3.5
16 | AUUCACCUUGGUCCUCGGGUG [Fam2.2 aminoacylation ribozyme variant] | 5.17 | 5.93 | 3.53 | 39.2 | 3.67 | 8.12
17 | UAGUUUUCUAAUAGUCGCAAG [Fam3.1 aminoacylation ribozyme variant] | 1.59 | 1.25 | 1.52 | 1.6 | 1.23 | 1.3
18 | CCACACUGCAAGAAAUCGGUC [Fam1B.1 aminoacylation ribozyme variant] | 1.51 | 1.12 | 1.51 | 1.29 | 1.72 | 1.51
19 | AUUACCGCGGUCAUCGAGUGA [Fam2.1 aminoacylation ribozyme variant] | 7.16 | 5.86 | 3.36 | 36.1 | 3.11 | 6.47
20 | AUUCACCUAGGUCAUAGGGUG [Fam2.2 aminoacylation ribozyme variant] | 1.49 | 1.75 | 1.39 | 2.06 | 1.35 | 2.06
21 | AUCACCCUGGUCCUCGAGUGA [Fam2.1 aminoacylation ribozyme variant] | 7.28 | 6.62 | 4.01 | 51.6 | 4.54 | 8.29
22 | AUUCACCUAGGUCAUUGAGUG [Fam2.2 aminoacylation ribozyme variant] | 3.89 | 3.53 | 2.6 | 12.3 | 2.3 | 4.17
23 | AAGUUUGCCAAUAGUCGUAAG [Fam3.1 aminoacylation ribozyme variant] | 1.51 | 0.873 | 0.916 | 1.38 | 0.732 | 0.724
24 | CUUACCCUGGACAUCGAGUGA [Fam2.1 aminoacylation ribozyme variant] | 5.06 | 5.08 | 2.78 | 11.5 | 3.18 | 5.46
25 | CUACUGCAACCAAUCGGUCUG [Fam1A.1 aminoacylation ribozyme variant] | 0.608 | 0.585 | 0.53 | 0.691 | 0.567 | 0.495
26 | AUUCCCCUAGGUCAGCGGGUG [Fam2.2 aminoacylation ribozyme variant] | 11 | 11.1 | 8.05 | 61.3 | 7.83 | 14.1
